Assay results as given in patent publication US20230055566A1.

Molecular target: human FGFR2b (beta)-Fc (human) (UniProt P21802)
Test: SPR (Biacore), hFGFR2b-Fc immobilized on CM5 chip, antibody injected at 0-200 nM

Kd: 0.75 nM
koff: 7.77e-05 s⁻¹
kon: 104000 M⁻¹ s⁻¹
Substance: FPA144 (antibody)
